Molecular target: SARS-CoV-2 RBD (residues Arg319–Phe541) (SARS-CoV-2) (UniProt P0DTC2)

| Binder | SARS-CoV-2 pseudovirus neutralisation (luciferase, Huh7), IC50, Fab [nM] | SARS-CoV-2 pseudovirus neutralisation (luciferase, Huh7), IC80, Fab [nM] | other [%] |
| --- | --- | --- | --- |
| P5A-2G7 (Fab) (Fab, V domains shown) VH: QVQLQESGPGLVKPSETLSLTCTVSGDSVSSGSYYWSWIRQPPGKGLEWIGYIYYSGSTNYNPSLKSRVTISVDTSKNQFSLKLSSVTAADTAVYYCARERCYYGSGRAPRCVWFDPWGQGTLVTVSS VL: QSALTQPASVSGSPGQSITISCTGTSSDVGGYNYVSWYQQHPGKAPKLMIYDVSNRPSGVSNRFSGSKSGNTASLTISGLQAEDEADYYCSSYTSSSTLVVFGGGTKLTVL | 195 | 1020 | 15.5 |
| P5A-1B8 (Fab) (Fab, V domains shown) VH: EVQLVESGGGLIQPGGSLRLSCAASGFTVSSNYMSWVRQAPGKGLEWVSVIYPGGSTFYADSVKGRFTISRDNSKNTLYLQMNSLRAEDTAVYYCARETLAFDYWGQGTLVTVSS VL: DIQLTQSPSFLSASVGDRVTITCRASQGISSYLAWYQQKPGKAPKLLIYAASTLQSGVPSRFSGSGSGTEFTLTISSLQPEDFATYYCQQLNSYPPAFGGGTKVEIK | 36.2 | 174 | 25.1 |

Source: PMC7966918
